Test results as given in patent US20210061908A1 (IOMX THERAPEUTICS, published 2021).

T1: extracellular domain (ECD) of human IGSF11 (VSIG3), biotinylated (human, UniProt Q5DX21 23-241, biotinylated (site not stated))
T1 construct: also called human IGSF11 protein
T1 sequence: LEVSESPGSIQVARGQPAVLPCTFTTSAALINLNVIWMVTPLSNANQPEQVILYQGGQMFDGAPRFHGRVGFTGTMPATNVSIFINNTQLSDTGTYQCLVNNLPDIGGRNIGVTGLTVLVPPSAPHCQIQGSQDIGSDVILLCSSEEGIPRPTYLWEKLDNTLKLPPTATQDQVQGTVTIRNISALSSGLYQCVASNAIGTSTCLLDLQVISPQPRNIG

T2: extracellular domain (ECD) of murine IGSF11, biotinylated (mouse, UniProt P0C673 23-240, biotinylated (site not stated))
T2 construct: also called Mouse IGSF11; murine IGSF11 protein
T2 sequence: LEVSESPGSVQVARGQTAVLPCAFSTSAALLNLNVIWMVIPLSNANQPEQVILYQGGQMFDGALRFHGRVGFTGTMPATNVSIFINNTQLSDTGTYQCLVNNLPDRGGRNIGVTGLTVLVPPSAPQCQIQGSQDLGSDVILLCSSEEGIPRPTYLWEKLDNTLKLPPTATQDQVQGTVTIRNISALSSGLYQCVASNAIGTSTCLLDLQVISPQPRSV

T3: human IGSF11 (VSIG3) expressed on the surface of cells (human, UniProt Q5DX21 23-431)
T3 construct: one molecule for all cell lines; the cell line is named under assay; also called IGSF11-expressing cells; HEK-OE
T3 sequence: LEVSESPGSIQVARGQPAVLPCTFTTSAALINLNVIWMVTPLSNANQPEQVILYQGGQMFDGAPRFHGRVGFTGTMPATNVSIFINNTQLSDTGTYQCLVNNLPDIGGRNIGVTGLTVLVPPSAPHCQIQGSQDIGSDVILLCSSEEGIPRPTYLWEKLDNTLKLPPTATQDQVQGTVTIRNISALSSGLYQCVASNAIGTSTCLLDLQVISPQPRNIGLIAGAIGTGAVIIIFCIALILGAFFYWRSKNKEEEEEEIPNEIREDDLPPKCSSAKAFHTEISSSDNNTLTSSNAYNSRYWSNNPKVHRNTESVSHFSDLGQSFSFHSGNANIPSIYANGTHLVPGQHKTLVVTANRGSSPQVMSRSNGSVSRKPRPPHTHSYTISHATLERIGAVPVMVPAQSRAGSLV

T4: extracellular domain (ECD) of human IGSF11 (VSIG3), HIS-tagged (human, UniProt Q5DX21 23-241, biotinylated in the ELISA of Example 4 (site not stated))
T4 construct: also called HIS-IGSF11; IGSF11-HIS; not shown: HIS6 tag
T4 sequence: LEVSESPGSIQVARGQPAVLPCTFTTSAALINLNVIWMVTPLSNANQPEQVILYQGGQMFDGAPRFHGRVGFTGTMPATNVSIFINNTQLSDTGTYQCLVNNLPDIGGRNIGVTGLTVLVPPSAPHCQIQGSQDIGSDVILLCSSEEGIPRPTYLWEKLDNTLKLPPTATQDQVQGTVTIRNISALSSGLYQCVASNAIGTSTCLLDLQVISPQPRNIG


Assays:
[1] = target: T1, extracellular domain (ECD) of human …; assay: ELISA, scFv; RFU grade (*** >1.0, ** 0.5-1.0, * 0.1-0.5)
[2] = target: T2, extracellular domain (ECD) of murine …; assay: as above
[3] = target: T3, human IGSF11 (VSIG3) expressed on the …; assay: FACS, IgG1 format, recombinant HEK cells expressing IGSF11 (HEK-OE)
[4] = target: T4, extracellular domain (ECD) of human …; assay: ELISA, coated IGSF11-HIS, IgG1 format; EC50 grade (* >1 nM, ** 0.05-1 nM, *** 0.02-0.05 nM, **** <0.02 nM)

Binder | relative fluorescent units (RFU), ELISA [1] | relative fluorescent units (RFU), ELISA [2] | EC50 [4] | further results
A-026 (scFv format) (scFv, V domains shown, scFv) VH: QVQLQESGPGLVKPSQTLSLTCTVSGGSISSGGYYWSWIRQHPGKGLEWIGYIYYSGSTYYNPSLKSRVTISVDTSKNQFSLKLSSVTAADTAVYYCASWSLGTSNHGWFDPWGQGTLVTVSS VL: QSVLTQPPSASGTPGQRVTISCSGSSSNIGSNTVNWYQQLPGTAPKLLISDNNNRPSGVPDRFSGSKSGTSASLAITGLQAEDEADYYCQSYDSNLSGWVFGGGTKLTVL | > 1 rfu | > 1 rfu |  | 
A-028 (scFv format) (scFv, V domains shown, scFv) VH: QVQLVQSGAEVKKPGSSVKVSCKASGGTFSSYAISWVRQAPGQGLEWMGGIIPIFGTANYAQKFQGRVTITADESTSTAYMELSSLRSEDTAVYYCARVGVEYQLLWYFDYWGQGTLVTVSS VL: DIQMTQSPSSLSASVGDRVTLTCRTSQTISNYLNWYQQKPGKAPKLLVYAASNLQSWVPSRFSGSGSGTDFTLTISSLQPEDFATYYCQQSYNASFGGGTKVEFK | 0.1 to 0.5 rfu | 0.1 to 0.5 rfu |  | 
A-035 (human IgG1 format) (antibody, V domains shown, human IgG1 format) VH: QVQLVQSGAEVKKPGASVKVSCKASGYTFTGYYMHWVRQAPGQGLEWMGWINPNSGNTGYAQKFQGRVTMTRNTSISTAYMELSSLRSEDTAVYYCARGRLERGYWYFDLWGRGTLVTVSS VL: NFMLTQPHSVSESPGRTVTISCTRSSGSITSNYVQWYQQRPGSAPTILIYEDKERPSEVPDRFSGSIDISSNSASLTISGLKTEDEADYYCQSYGGTSQGVLFGGGTKVTVL |  |  | 0.02 to 0.05 nM | EC50 [3]: > 50 nM
A-023 (human IgG1 format) (antibody, V domains shown, human IgG1 format) VH: QVQLVQSGAEVKKPGSSVKVSCKASGGTFSSYAISWVRQAPGQGLEWMGGIIPIFGTANYAQKFQGRVTITADESTSTAYMELSSLRSEDTAVYYCARPKYSSGWFYYYGMDVWGQGTTVTVSS VL: QSVLTQPPSVSAAPGQKVTISCSGSSSNIGNNYVSWYQQLPGTAPKLLIYDNNKRPSGIPDRFSGSKSGTSATLGITGLQTGDEADYYCGTWDSSLSVVFGGGTKLTVL |  |  | 0.05 to 1 nM | 
A-016 (human IgG1 format) (antibody, V domains shown, human IgG1 format) VH: QVQLQESGAEVKKPGASVKVSCKASGYTFTGYYMHWVRQAPGQGLEWMGGIIPIFGTANYAQKFQGRVTITADESTSTAYMELSSLRSEDTAVYYCAGAGMELTRSGAYYYYGMDVWGQGTTVTVSS VL: QSALTQPASVSGSPGQSITISCTGTSSDIGGYTFVSWYQQHPGKAPKVMIHDVNNRPSGISNRFSGSKSGNTASLTISGLQAEDEADYYCSSVTSTNTYVFGTGTKVTVL |  |  | < 0.02 nM | 
A-027 (scFv format) (scFv, V domains shown, scFv) VH: QVQLVQSGAEVKKPGSSVKVSCKASGGTFSSYAISWVRQAPGQGLEWMGGIIPIFGTANYAQKFQGRVTITADKSTSTAYMELSSLRSEDTAVYYCARARGSTWGYFDYWGQGTLVTVSS VL: EIVLTQSPASLSLSPGERVTLSCRASQSVSNYLAWYQQKPGQAPRLLIYDASNRATGIPARFSGSGSGTDFTLTISSLEPEDFAVYYCQQRDNWPLTFGGGTKVEIK | 0.1 to 0.5 rfu | 0.1 to 0.5 rfu |  | 
A-033 (human IgG1 format) (antibody, V domains shown, human IgG1 format) VH: QVQLVQSGAEVKKPGASVKVSCKASGYTFTSYGISWVRQAPGQGLEWMGWISAYNGNTNYAQKLQGRVTMTTDTSTSTAYMELRSLRSDDTAVYYCARDHSIVGATTFDYWGQGTLVTVSS VL: not shown |  |  | 0.02 to 0.05 nM | 
A-003 (human IgG1 format) (antibody, V domains shown, human IgG1 format) VH: VQLVQSGAEVKKPGSSVKVSCKASGGTFSSYAISWVRQAPGQGLEWMGGIIPIFGTANYAQKFQGRVTITADESTSTAYMELSSLRSEDTAVYYCASPRIQLWAAGGFDYWGQGTLVTVSS VL: QSALTQPASVSGSPGQSITISCTGTSSDVGGYNLVSWYQQHPGKAPKLMIYDVSNRPSGVSNRFSGSKSGNTASLTISGLQAEDEADYYCSSFTTSTTLVFGGGTKLTVL |  |  | 0.05 to 1 nM | 
A-025 (human IgG1 format) (antibody, V domains shown, human IgG1 format) VH: QVQLVQSGAEVKKPGSSVKVSCKASGGTFSSYAISWVRQAPGQGLEWMGGIIPIFGTANYAQKFQGRVTITADESTSTAYMELTSLRSEDTAVYYCARGGWLRQNWFDPWGQGTLVTVSS VL: SSELTQDPAVSVALGQTVRITCQGDSLRSYYASWYQQKPGQAPVLVIYGKNNRPSGIPDRFSGSSSGNTASLTITGAQAEDEADYYCNSRDSSGNHPRVFGGGTKLTVL |  |  | 0.05 to 1 nM | 
A-025 (scFv format) (scFv, V domains shown, scFv) VH: QVQLVQSGAEVKKPGSSVKVSCKASGGTFSSYAISWVRQAPGQGLEWMGGIIPIFGTANYAQKFQGRVTITADESTSTAYMELTSLRSEDTAVYYCARGGWLRQNWFDPWGQGTLVTVSS VL: SSELTQDPAVSVALGQTVRITCQGDSLRSYYASWYQQKPGQAPVLVIYGKNNRPSGIPDRFSGSSSGNTASLTITGAQAEDEADYYCNSRDSSGNHPRVFGGGTKLTVL | 0.1 to 0.5 rfu | 0.1 to 0.5 rfu |  | 
A-009 (human IgG1 format) (antibody, V domains shown, human IgG1 format) VH: QVQLVQSGAEVKKPGSSVKVSCKASGGTFSSYAISWVRQAPGQGLEWMGGIIPIFGTANYAQKFQGRVTITADESTSTAYMELSSLRSEDTAVYYCARGRGFGELYFDYWGQGTLVTVSS VL: ETTLTQSPATLSVSPGERATLSCRASQGVRSNIAWYQQKPGQAPRLLIYDSSTRATGIPARFSGSGSGTEFTLTISSLQSEDFAVYSCQQYKNWPRTFGQGTKVEIK |  |  | 0.05 to 1 nM | 
A-001 (human IgG1 format) (antibody, V domains shown, human IgG1 format) VH: EVQLVESGGGLVKPGGSLRLSCAASGFTFSSYSMNWVRQAPGKGLEWVSSISSSSSYIYYADSVKGRFTISRDNAKNSLYLQMNSLRAEDTAVYYCVRSIIVQALGITSVFDIWGQGTMVTVSS VL: AIRLTQSPSSLSASVGDRVTISCRASQIISNHLNWYQQKPGKAPKLLIYAASRLQTGVPSRFSGSGSETDYTLTISSLQPEDFATYYCQQSYSNPRTFGHGTKVEIK |  |  | < 0.02 nM | 
A-029 (human IgG1 format) (antibody, V domains shown, human IgG1 format) VH: QVQLVQSGAEVKKPGSSVKVSCKASGGTFSSYAISWVRQAPGQGLEWMGGIIPIFGTANYAQKFQGRVTITADESTGTAYMELSSLRSEDTAVYYCARSYYYYYGMDVWGQGTTVTVSS VL: not shown |  |  | 0.05 to 1 nM | 
A-029 (scFv format) (scFv, V domains shown, scFv) VH: QVQLVQSGAEVKKPGSSVKVSCKASGGTFSSYAISWVRQAPGQGLEWMGGIIPIFGTANYAQKFQGRVTITADESTGTAYMELSSLRSEDTAVYYCARSYYYYYGMDVWGQGTTVTVSS VL: not shown | 0.1 to 0.5 rfu | 0.1 to 0.5 rfu |  | 
A-008 (human IgG1 format) (antibody, V domains shown, human IgG1 format) VH: QLQLQESGPGLVKPSETLSLTCTVSGGSISSSGYYWGWIRQPPGKGLEWIGSIYYSGSTYYNPSLKSRVTISVDTSKNQFSLKLSSVTAADTAVYYCARHRVRFGEFDAFDIWGQGTMVTVSS VL: QAVLTQPPSVSGAPGERVTLSCTGTSSNVGADFDVHWYQQFPGTAPRLLIFGSDNRPSGVPDRFSGSKSGTSASLAITGLQVEDEADYYCQAYDVRLSGWVFGGGTKLTVL |  |  | 0.02 to 0.05 nM | 
A-010 (human IgG1 format) (antibody, V domains shown, human IgG1 format) VH: QVQLVQSGAEVKKPGASVKVSCKASGYTFTSYGISWVRQAPGQGLEWMGWISAYNGNTNYAQKLQGRVTMTTDTSTSTAYMELRSLRSDDTAVYYCARVPAWSGQFDYWGQGTLVTVSS VL: QSALTQPASVSGSPGQSITISCTGSSSDVGGYNYVSWYQQYPGKAPKLMIYDVRSRPSGVSNRFSGSKSGNTASLTISGLQAEDEADYYCTSYTSSNTLVIFGGGTKVTVL |  |  | < 0.02 nM | 
